Reference: paper PMC4497647

Experiments:
[1] = biological target: HIV-1 envelope (Env) of strain DH123 (subtype B) (HIV-1 subtype B)
[2] = biological target: HIV-1 envelope (Env) of strain PVO.4 (subtype B) (HIV-1 subtype B)
[3] = biological target: HIV-1 envelope (Env) of strain JR-CSF (subtype B) (HIV-1 subtype B) (UniProt P20871)
[4] = biological target: HIV-1 envelope (Env) of strain THRO (subtype B) (HIV-1 subtype B)
[5] = biological target: HIV-1 envelope (Env) of strain REJO (subtype B) (HIV-1 subtype B)
[6] = biological target: HIV-1 envelope (Env) of strain ZM53 (subtype C) (HIV-1 subtype C)
[7] = biological target: HIV-1 envelope (Env) of strain ZM109 (subtype C) (HIV-1 subtype C)
[8] = biological target: HIV-1 envelope (Env) of strain SF162 (subtype B) (HIV-1 subtype B) (UniProt P19550)
[9] = biological target: HIV-1 envelope (Env) of strain JR-FL (subtype B) (HIV-1 subtype B) (UniProt Q75760)
[10] = biological target: HIV-1 envelope (Env) of strain BG505 (subtype A) (HIV-1 subtype A) (UniProt Q2N0S6)
[11] = biological target: HIV-1 envelope (Env) of strain ZM214 (subtype C) (HIV-1 subtype C)

**Q.** Which results are given for fusion inhibitor T-20 (peptide)?
**A.** reduction in inhibitory activity during cell-cell transmission (293-T donor to A3.01-CCR5) against free virus infection of A3.01-CCR5 (fold change IC50) [1]: < 10 fold; reduction in inhibitory activity during cell-cell transmission (293-T donor to A3.01-CCR5) against free virus infection of A3.01-CCR5 (fold change IC50) [2]: < 10 fold; reduction in inhibitory activity during cell-cell transmission (293-T donor to A3.01-CCR5) against free virus infection of A3.01-CCR5 (fold change IC50) [3]: < 10 fold; median fold reduction for T-20 in cell-cell transmission (293-T donor to A3.01-CCR5) against free virus infection [4]: 1.6 fold; reduction in inhibitory activity during cell-cell transmission (293-T donor to A3.01-CCR5) against free virus infection of A3.01-CCR5 (fold change IC50) [5]: < 10 fold; reduction in inhibitory activity during cell-cell transmission (293-T donor to A3.01-CCR5) against free virus infection of A3.01-CCR5 (fold change IC50) [6]: < 10 fold; reduction in inhibitory activity during cell-cell transmission (293-T donor to A3.01-CCR5) against free virus infection of A3.01-CCR5 (fold change IC50) [7]: < 10 fold; reduction in inhibitory activity during cell-cell transmission (293-T donor to A3.01-CCR5) against free virus infection of A3.01-CCR5 (fold change IC50) [8]: < 10 fold; reduction in inhibitory activity during cell-cell transmission (293-T donor to A3.01-CCR5) against free virus infection of A3.01-CCR5 (fold change IC50) [9]: < 10 fold; reduction in inhibitory activity during cell-cell transmission (293-T donor to A3.01-CCR5) against free virus infection of A3.01-CCR5 (fold change IC50) [10]: < 10 fold; median fold reduction for T-20 in cell-cell transmission (293-T donor to A3.01-CCR5) against free virus infection [11]: 5.3 fold
